{"source": "the DeepSol protein solubility set", "data": [{"test": "soluble on expression in E. coli; label from the status in PepcDB or PDB records", "values": [{"sequence": "MPLEASELKPTAGPLEASELKPTAGPLEASELKPTAGPLEASELKPTAGPLEASELKPTAGPLEASELKPTAGPLEASELKPTAGMFKNAKEFVQYANKLKTLREKKLNGVSIYVCVGTGCTAKGALKVYSAFEEELKKRNLLGQVTLEKIDDDKVTLNRTGCCGRCSSGPLVKIMPYRFFYSNVAPEDVPEIVDRTVLKGEPIERLFLTDPLTGEKVPRIEDTTLFKNQDFYIMEAIGESECDSIEDYIARSGYESLVKALTSMTPEEIIETVKASGLRGRGGGGFPTGLKWEFTRKAQGDIKFVVCNGDEGDPGAFMNRTLLERDPHLVLEGMIIAGYAVGAQKGYAYIRAEYPFAVKMFKKAIEDARKLGLLGENILGTGFSFDLEVKEGAGAFVCGEETALLASIEGKRGMPRPKPPFPAQSGLWGKPTLINNVETYANIPRILRDGVENYRKRGTENSPGTKMFSVAGPLKATGIIEVEFGTTLRDIIYNICGGFVEGEEFKAVQIGGPSGACLSEDFIDMPLDYDTLKKADAMVGSGGIVVITKKTCMVEVARFFLDFTKRESCGKCVPCREGTMQAYNILEKFTHGKATYEDLKTLEHLSKTIKTASLCGLGKTAPNPILSTLKLFREEYIAHIEGECPSGMCTAFKKYVINPDICKGCGLCARSCPQNAITGERGKPYTIDQEKCVKCGLCASKCPFKAIELVAAALEHHHHHH", "soluble on expression in E. coli": "not soluble"}, {"sequence": "MPLEASELKPTAGPLEASELKPTAGPLEASELKPTAGPLEASELKPTAGPLEASELKPTAGPLEASELKPTAGPLEASELKPTAGMYAFKAVKQYFYPSDNLKVLMHKFTDMVNFTINIMIEKNLTSRNSVSNEVYHKLKEYEIPSYYYIEAINKAVALVKTYRKRLKKKQKATVPHVEKPMLSTYYGFKIVGGNLMIPIANREYESIPLNAYVRDATSMVKVHSFALSAYTLSLTIGRDVDAIECTTTVGVDRNLRNATVGNEFHHEIYDLSNVVEIKQRYRKKESHFHRNDRRIREKILSKYGKRERNRVKQIMHETSKAIVSNASTRKEMIVLENIRGINKITKKGDGKGKDYRFLLKNAFPYGMLASQVMYKASWEGLPVIELTRKETRNTSRMCSVCGSLTRIEHGRILKCDSCGLEIDRDVNACINIAFRYRTCLKRSHKGLPGEAVKQSKDVEQMAGSQISTDILEHHHHHH", "soluble on expression in E. coli": "soluble"}, {"sequence": "MPLGLFSSGKAQVLCDEKIPGGKKKEPKQLSENKCKGVTLKLDHTRVTIEKQIAEGGFAIVYVASDRKNNKFALKRQFTKDNEKQLEACCREHSFLKQCIGHKNIVEFVDSYTNCLGNGIWECMLLTEYHQKNVLQLMNERISQNQYLTNDEILSIFTDLCEAVSFIHNRPQPIIHRDLKVENVLISSHKPPHYVLCDFGSATTQILSVEKYGVEYVKSEVERNTTMCYRSPEMIDFYSGLEIGLKSDIWALGVLLYRLCFFCVPFEESPLAIQSVNYQFPSVPNIPDEIKVLIYMLLDIDVNRRPSIYQTSVLAFEANHRKPLSEEIQNKKCTDAVPSLKSCIQLMRDGSNPRNKRDSSPRNPEAPPIQSSSKMASLSQQVPSISNISMPSGSGTVETSVAPRLRPKATTVVPNVPSISPVPPVGLPHLRLPSKGSTDETDGSQVRKVPIDFHHRQSFSGEEQLKPAAEADSAGPLSCPLIKPTDLGFTDLDKPALPRDRAQTDGKRRLPHESDIIFQQQHRRNVSDTSQISRSAFKPYSSQQTTSKTSSQVVRSVEDMSQRQNGGSGEWNPFLVAPFSNNSISRKDGQESAFMMDDSHFGMVFDEIRRKEIPAELDSETSSIDSRDPFGAAPFDQLTVSTSSSAQPVSLPPGSVHLHTSIAPSPLLRHVLTKAPPPVPRRTTSRGFQV", "soluble on expression in E. coli": "not soluble"}, {"sequence": "MPLLCALIVGGLFGTSQAQAGGFMVPTTNTAGWGRAMAGGSLFPNDPSAAFNNPAAMAFIDKRIAQLTVNYADIDIKYNGDAYDYQGNPMTGGYQDGPGTPELGTNDGGQAGFGAWLPTGFLVVPINDRFAFGLSQVVPMGMRSTWDPNWKGRDFAVDTKIETIGLTGSLSFKVNDNFSLGAGVIIQRTSGFVSQNLDLYASAANSPGMGGIPFPASNSSALMRVKVDNTSPGFFAGAVWKPTDRDTLGFAYHAKIRNKLKGHYNLYDHDGGLTEGAIEGGTPGLAYPGLDLRMGASASARLDIPAYASLDWVHQFNDRLSLGASATWTEWSSFQDLTLKSHGNTIVSIPYTYRNTWTLAVGGDYKVTDQWTMRAGVAYDQTPTHNATRDPRIPDGDRYFASLGAGYRFQSMPELSIDAAYSRQFVKEVPLKTVNQDRLGGGRLDGRATSKGQVFSLSATYDF", "soluble on expression in E. coli": "not soluble"}]}]}
